Results on 8 molecules are retold here after US20240228562A1, “NOVEL LIPOCALIN MUTEINS SPECIFIC FOR CONNECTIVE TISSUE GROWTH FACTOR (CTGF)” (PIERIS PHARMACEUTICALS GMBH, priority 2021, published 2024).

The nature of the data set: Thermal stability assessment by nanoDSC. In kind it is physicochemical. The conditions noted are these: 1 mg/mL in PBS, scan 25-100° C. at 1° C./min; for TM: major transition. On the procedure:
To determine the melting temperatures (Tms) of the lipocalin muteins, which is a general indicator for folding stability, the CTGF specific muteins, at a protein concentration of 1 mg/mL in PBS (Gibco), were scanned (25-100° C.) at 1° C./min using a capillary nanoDSC instrument (CSC 6300, TA Instruments). […] Several unfolding events can contribute to the observed thermogram. In cases with multiple transitions, the one with the major unfolding energy best represents the overall protein fold and is reported. Muteins were produced as described in Example 3. SEQ ID NOs: 3, 7, 9, 25, and 29 were expressed using E. coli, the other muteins were expressed using CHO cells.
The resulting maximum melting temperatures as well as the onset temperature of melting for exemplary lipocalin muteins and fusion proteins are listed in Table 3 below.

B1: SEQ ID NO: 62: fusion protein comprising two CTGF-binding lipocalin muteins (protein)
chain: QDSTSDLIPAPPLSKVPLQQNFQDNQFQGKWYVVGRAGNNQLREDKSPPKMWATIYELKEDKSYDVTHVHFSTKKCRYIIDTFVPGSQPGEFTAGAIKSGPGLTSPLVRVVSTNYNQHAMVFFKWVTQNREWFTITLYGRTKELTSELKENFIRFSKSLGLPENHIVFPVPIDQCIDGGGGGSGGGGSGGGGSQDSTSDLIPAPPLSKVPLQQNFQDNQFQGKWYVVGWAGNVKLREDKQPQKMSATIYELKEDKSYDVTEVVFEQKKCHYIIKTFVPGSQPGEFTAGDIKSPPGYTSSLVRVVSTNYNQHAMVFFKKVSQNREFFWITLYGRTKELTSELKENFIRFSKSLGLPENHIVFPVPIDQCIDG
modifications: fusion protein
Turning to B1, the “ONSET MELTING” value is 53 °C and the TM worked out at 67 °C.

B2: SEQ ID NO: 70: fusion protein comprising two CTGF-binding lipocalin muteins (protein)
chain: QDSTSDLIPAPPLSKVPLQQNFQDNQFQGKWYVVGWAGNVKLREDKQPQKMSATIYELKEDKSYDVTEVVFEQKKCHYIIKTFVPGSQPGEFTAGDIKSPPGYTSSLVRVVSTNYNQHAMVFFKKVSQNREFFWITLYGRTKELTSELKENFIRFSKSLGLPENHIVFPVPIDQCIDGGGGGSGGGGSGGGGSQDSTSDLIPAPPLSKVPLQQNFQDNQFQGKWYVVGLAGNAILREDKQPAKMFATIYELKEDKSYDVTSVRFEAKSCKYTIKTFVPGSQPGEFTAGYIKSAPGQTSTLVRVVSTNYNQHAMVFFKHVTQNREIFVITLYGRTKELTSELKENFIRFSKSLGLPENHIVFPVPIDQCIDG
modifications: fusion protein
Consider B2, for which the “ONSET MELTING” value was determined as 55 °C and the TM turned out to be 73 °C.

B3: SEQ ID NO: 64: fusion protein comprising two CTGF-binding lipocalin muteins (protein)
chain: QDSTSDLIPAPPLSKVPLQQNFQDNQFQGKWYVVGLAGNYRLREDKDPSKMGATIYELKEDKSYDVTQVQFDDKKCLYVIETFVPGSQPGEFTLGAIKSYPGLTSQLVRVVSTNYNQHAMVFVKKVWPNLEYFQIVLYGRTKELTSELKENFIRFSKSLGLPENHIVFPVPIDQCIDGGGGGSGGGGSGGGGSQDSTSDLIPAPPLSKVPLQQNFQDNQFQGKWYVVGLAGNAILREDKQPAKMFATIYELKEDKSYDVTSVRFEAKSCKYTIKTFVPGSQPGEFTAGYIKSAPGQTSTLVRVVSTNYNQHAMVFFKHVTQNREIFVITLYGRTKELTSELKENFIRFSKSLGLPENHIVFPVPIDQCIDG
modifications: fusion protein
B3: the “ONSET MELTING” value was determined as 56 °C and the TM was 65 °C.

B4: SEQ ID NO: 68: fusion protein comprising two CTGF-binding lipocalin muteins (protein)
chain: QDSTSDLIPAPPLSKVPLQQNFQDNQFQGKWYVVGLAGNAILREDKQPAKMFATIYELKEDKSYDVTSVRFEAKSCSYTSKTFVPGSQPGEFTAGNIKSAPGQTSTLVRVVSTNYNQHAMVFFKHVSQNRETFVITLYGRTKELTSELKENFIRFSKSLGLPENHIVFPVPIDQCIDGGGGGSGGGGSGGGGSQDSTSDLIPAPPLSKVPLQQNFQDNQFQGKWYVVGWAGNVKLREDKQPQKMSATIYELKEDKSYDVTEVVFEQKKCHYIIKTFVPGSQPGEFTAGDIKSPPGYTSSLVRVVSTNYNQHAMVFFKKVSQNREFFWITLYGRTKELTSELKENFIRFSKSLGLPENHIVFPVPIDQCIDG
modifications: fusion protein
In the case of B4, the “ONSET MELTING” value was determined as 61 °C and the TM is 72 °C.

B5: SEQ ID NO: 71: fusion protein comprising two CTGF-binding lipocalin muteins (protein)
chain: QDSTSDLIPAPPLSKVPLQQNFQDNQFQGKWYVVGLAGNAILREDKYPAKMFATIYELKEDKSYDVTSVRFENKSCVYTIKTFVPGSQPGEFTTGNIKSAPGQTSTLVRVVSTNYNQHAMVFFKHVSQNREFFVITLYGRTKELTSELKENFIRFSKSLGLPENHIVFPVPIDQCIDGGGGGSGGGGSGGGGSQDSTSDLIPAPPLSKVPLQQNFQDNQFQGKWYVVGWAGNVKLREDKQPQKMSATIYELKEDKSYDVTEVVFEQKKCHYIIKTFVPGSQPGEFTAGDIKSPPGYTSSLVRVVSTNYNQHAMVFFKKVSQNREFFWITLYGRTKELTSELKENFIRFSKSLGLPENHIVFPVPIDQCIDG
modifications: fusion protein
As for B5, the “ONSET MELTING” value worked out at 67 °C and the TM worked out at 76 °C.

B6: SEQ ID NO: 69: fusion protein comprising two CTGF-binding lipocalin muteins (protein)
chain: QDSTSDLIPAPPLSKVPLQQNFQDNQFQGKWYVVGLAGNAILREDKQPAKMFATIYELKEDKSYDVTSVRFEAKSCSYTSKTFVPGSQPGEFTAGNIKSAPGQTSTLVRVVSTNYNQHAMVFFKHVSQNRETFVITLYGRTKELTSELKENFIRFSKSLGLPENHIVFPVPIDQCIDGGGGGSGGGGSGGGGSQDSTSDLIPAPPLSKVPLQQNFQDNQFQGKWYVVGLAGNYRLREDKDPSKMGATIYELKEDKSYDVTQVQFDDKKCLYVIETFVPGSQPGEFTLGAIKSYPGLTSQLVRVVSTNYNQHAMVFVKKVWPNLEYFQIVLYGRTKELTSELKENFIRFSKSLGLPENHIVFPVPIDQCIDG
modifications: fusion protein
Consider B6, for which the “ONSET MELTING” value worked out at 57 °C and the TM was 64 °C.

B7: SEQ ID NO: 72: fusion protein comprising two CTGF-binding lipocalin muteins (protein)
chain: QDSTSDLIPAPPLSKVPLQQNFQDNQFQGKWYVVGLAGNAILREDKYPAKMFATIYELKEDKSYDVTSVRFENKSCVYTIKTFVPGSQPGEFTTGNIKSAPGQTSTLVRVVSTNYNQHAMVFFKHVSQNREFFVITLYGRTKELTSELKENFIRFSKSLGLPENHIVFPVPIDQCIDGGGGGSGGGGSGGGGSQDSTSDLIPAPPLSKVPLQQNFQDNQFQGKWYVVGLAGNYRLREDKDPSKMGATIYELKEDKSYDVTQVQFDDKKCLYVIETFVPGSQPGEFTLGAIKSYPGLTSQLVRVVSTNYNQHAMVFVKKVWPNLEYFQIVLYGRTKELTSELKENFIRFSKSLGLPENHIVFPVPIDQCIDG
modifications: fusion protein
Consider B7, for which the “ONSET MELTING” value came out at 62 °C and the TM came out at 66 °C.

B8: SEQ ID NO: 63: fusion protein comprising two CTGF-binding lipocalin muteins (protein)
chain: QDSTSDLIPAPPLSKVPLQQNFQDNQFQGKWYVVGRAGNNQLREDKSPPKMWATIYELKEDKSYDVTHVHFSTKKCRYIIDTFVPGSQPGEFTAGAIKSGPGLTSPLVRVVSTNYNQHAMVFFKWVTQNREWFTITLYGRTKELTSELKENFIRFSKSLGLPENHIVFPVPIDQCIDGGGGGSGGGGSGGGGSQDSTSDLIPAPPLSKVPLQQNFQDNQFQGKWYVVGLAGNAILREDKQPAKMFATIYELKEDKSYDVTSVRFEAKSCKYTIKTFVPGSQPGEFTAGYIKSAPGQTSTLVRVVSTNYNQHAMVFFKHVTQNREIFVITLYGRTKELTSELKENFIRFSKSLGLPENHIVFPVPIDQCIDG
modifications: fusion protein
For the molecule B8, the “ONSET MELTING” value was determined as 50 °C and the TM came out at 66 °C.
